Experimental findings from paper PMC8784147 are described below.

As a reminder, the stoichiometry N is the number of molecules, sites or subunits per partner or assembly.

This assay concerns the target HBV core protein dimer (Cp149 dimer, 34 kDa) (hepatitis B virus). In words: multi-cycle resistive-pulse sensing.

Consider “HBV core protein dimer (Cp149 dimer, 34 kDa) (domain or fragment)”, for which the stoichiometry N came out at 120 dimers.
